Laboratory results from PMC11434081, “Cross-Effects in Folding and Phase Transitions of hnRNP A1 and C9Orf72 RNA G4 In Vitro” (Molecules, 2024).
Where a chain is given by its changes, count along the chain named. Names may count otherwise.

Target: the molecule itself
Test: thioflavin T fluorescence (fibrillation assay); self-association of the peptide into cross-beta fibrils; 40 µM peptide, 13 µM ThT, 0.5 mM DTT, 40 mM HEPES-KOH pH 7.4, 150 mM KCl or NaCl (methods), room temperature (RGG-PLD^mut-NLS also at 37 °C), at least 3 h

B1: PLD^mut-NLS (hnRNP A1 aa 234–272, D262V) (peptide)
peptide: GGGYGGSGDGYNGFGNDGSNFGGGGSYNVFGNYNNQSSN
notes: hnRNP A1, human, residues 234-272 with D262V; Synthesised on an amide resin, so the C-terminus may be amidated; source: synthetic peptide (Fmoc solid phase, RP-HPLC purified)
binding result: binds

B2: RGG-PLD^mut-NLS (hnRNP A1 aa 218–272, D262V) (peptide)
peptide: RGGNFSGRGGFGGSRGGGGYGGSGDGYNGFGNDGSNFGGGGSYNVFGNYNNQSSN
notes: hnRNP A1, human, residues 218-272 with D262V; Synthesised on an amide resin, so the C-terminus may be amidated; source: synthetic peptide (Fmoc solid phase, RP-HPLC purified)
reduction of the ThT signal relative to PLD^mut-NLS: 30 ± 10%

B3: RGG-PLD^wt-NLS (hnRNP A1 aa 218–272, wild type) (peptide)
peptide: B2 peptide with V45D
notes: hnRNP A1, human, residues 218-272, wild type; Synthesised on an amide resin, so the C-terminus may be amidated; source: synthetic peptide (Fmoc solid phase, RP-HPLC purified)
fold lower fibrillation (ThT) than RGG-PLD^mut-NLS: ~2 fold
